The target in the assay is MetCb purified individually (Aminobacter sp. strain NyZ550). The experiment in a line: not stated; purified MetCb alone in solution; experiment not described.

Take “MetCb purified individually (natural protein)”: the stoichiometry N is 6.

In general, stoichiometry N refers to the number of molecules, sites or subunits per partner or assembly.

The values above are taken from paper PMC11271267.
